{"source": "patent US20160024487", "key": {"[1]": {"tested_on": "T1, Lys(Dnp)-ATNATX4X3PRIVGG-Lys(Abz), X4 = A, X3 = E", "T1 sequence": "KATNATAEPRIVGGK"}, "[2]": {"tested_on": "T2, Lys(Dnp)-ATNATX4X3PRIVGG-Lys(Abz), X4 = D, X3 = G", "T2 sequence": "KATNATDGPRIVGGK"}, "[3]": {"tested_on": "T3, Lys(Dnp)-ATNATX4X3PRIVGG-Lys(Abz), X4 = E, X3 = H", "T3 sequence": "KATNATEHPRIVGGK"}, "[4]": {"tested_on": "T4, Lys(Dnp)-ATNATX4X3PRIVGG-Lys(Abz), X4 = E, X3 = K", "T4 sequence": "KATNATEKPRIVGGK"}, "[5]": {"tested_on": "T5, Lys(Dnp)-ATNATX4X3PRIVGG-Lys(Abz), X4 = E, X3 = T", "T5 sequence": "KATNATETPRIVGGK"}, "[6]": {"tested_on": "T6, Lys(Dnp)-ATNATX4X3PRIVGG-Lys(Abz), X4 = E, X3 = W", "T6 sequence": "KATNATEWPRIVGGK"}, "[7]": {"tested_on": "T7, Lys(Dnp)-ATNATX4X3PRIVGG-Lys(Abz), X4 = G, X3 = A", "T7 sequence": "KATNATGAPRIVGGK"}, "[8]": {"tested_on": "T8, Lys(Dnp)-ATNATX4X3PRIVGG-Lys(Abz), X4 = G, X3 = F", "T8 sequence": "KATNATGFPRIVGGK"}, "[9]": {"tested_on": "T9, Lys(Dnp)-ATNATX4X3PRIVGG-Lys(Abz), X4 = G, X3 = K", "T9 sequence": "KATNATGKPRIVGGK"}, "[10]": {"tested_on": "T10, Lys(Dnp)-ATNATX4X3PRIVGG-Lys(Abz), X4 = G, X3 = M", "T10 sequence": "KATNATGMPRIVGGK"}, "[11]": {"tested_on": "T11, Lys(Dnp)-ATNATX4X3PRIVGG-Lys(Abz), X4 = G, X3 = R", "T11 sequence": "KATNATGRPRIVGGK"}, "[12]": {"tested_on": "T12, Lys(Dnp)-ATNATX4X3PRIVGG-Lys(Abz), X4 = G, X3 = V", "T12 sequence": "KATNATGVPRIVGGK"}, "[13]": {"tested_on": "T13, Lys(Dnp)-ATNATX4X3PRIVGG-Lys(Abz), X4 = H, X3 = Q", "T13 sequence": "KATNATHQPRIVGGK"}, "[14]": {"tested_on": "T14, Lys(Dnp)-ATNATX4X3PRIVGG-Lys(Abz), X4 = H, X3 = R", "T14 sequence": "KATNATHRPRIVGGK"}, "[15]": {"tested_on": "T15, Lys(Dnp)-ATNATX4X3PRIVGG-Lys(Abz), X4 = H, X3 = S", "T15 sequence": "KATNATHSPRIVGGK"}, "[16]": {"tested_on": "T16, Lys(Dnp)-ATNATX4X3PRIVGG-Lys(Abz), X4 = H, X3 = T", "T16 sequence": "KATNATHTPRIVGGK"}, "[17]": {"tested_on": "T17, Lys(Dnp)-ATNATX4X3PRIVGG-Lys(Abz), X4 = H, X3 = W", "T17 sequence": "KATNATHWPRIVGGK"}, "[18]": {"tested_on": "T18, Lys(Dnp)-ATNATX4X3PRIVGG-Lys(Abz), X4 = M, X3 = E", "T18 sequence": "KATNATMEPRIVGGK"}, "[19]": {"tested_on": "T19, Lys(Dnp)-ATNATX4X3PRIVGG-Lys(Abz), X4 = N, X3 = H", "T19 sequence": "KATNATNHPRIVGGK"}, "[20]": {"tested_on": "T20, Lys(Dnp)-ATNATX4X3PRIVGG-Lys(Abz), X4 = N, X3 = Q", "T20 sequence": "KATNATNQPRIVGGK"}, "[21]": {"tested_on": "T21, Lys(Dnp)-ATNATX4X3PRIVGG-Lys(Abz), X4 = N, X3 = S", "T21 sequence": "KATNATNSPRIVGGK"}, "[22]": {"tested_on": "T22, Lys(Dnp)-ATNATX4X3PRIVGG-Lys(Abz), X4 = N, X3 = T", "T22 sequence": "KATNATNTPRIVGGK"}, "[23]": {"tested_on": "T23, Lys(Dnp)-ATNATX4X3PRIVGG-Lys(Abz), X4 = N, X3 = Y", "T23 sequence": "KATNATNYPRIVGGK"}, "[24]": {"tested_on": "T24, Lys(Dnp)-ATNATX4X3PRIVGG-Lys(Abz), X4 = P, X3 = E", "T24 sequence": "KATNATPEPRIVGGK"}, "[25]": {"tested_on": "T25, Lys(Dnp)-ATNATX4X3PRIVGG-Lys(Abz), X4 = S, X3 = A", "T25 sequence": "KATNATSAPRIVGGK"}, "[26]": {"tested_on": "T26, Lys(Dnp)-ATNATX4X3PRIVGG-Lys(Abz), X4 = S, X3 = H", "T26 sequence": "KATNATSHPRIVGGK"}, "[27]": {"tested_on": "T27, Lys(Dnp)-ATNATX4X3PRIVGG-Lys(Abz), X4 = S, X3 = I", "T27 sequence": "KATNATSIPRIVGGK"}, "[28]": {"tested_on": "T28, Lys(Dnp)-ATNATX4X3PRIVGG-Lys(Abz), X4 = S, X3 = M", "T28 sequence": "KATNATSMPRIVGGK"}, "[29]": {"tested_on": "T29, Lys(Dnp)-ATNATX4X3PRIVGG-Lys(Abz), X4 = S, X3 = T", "T29 sequence": "KATNATSTPRIVGGK"}, "[30]": {"tested_on": "T30, Lys(Dnp)-ATNATX4X3PRIVGG-Lys(Abz), X4 = S, X3 = V", "T30 sequence": "KATNATSVPRIVGGK"}, "[31]": {"tested_on": "T31, Lys(Dnp)-ATNATX4X3PRIVGG-Lys(Abz), X4 = S, X3 = W", "T31 sequence": "KATNATSWPRIVGGK"}, "[32]": {"tested_on": "T32, Lys(Dnp)-ATNATX4X3PRIVGG-Lys(Abz), X4 = T, X3 = A", "T32 sequence": "KATNATTAPRIVGGK"}, "[33]": {"tested_on": "T33, Lys(Dnp)-ATNATX4X3PRIVGG-Lys(Abz), X4 = T, X3 = F", "T33 sequence": "KATNATTFPRIVGGK"}, "[34]": {"tested_on": "T34, Lys(Dnp)-ATNATX4X3PRIVGG-Lys(Abz), X4 = T, X3 = G", "T34 sequence": "KATNATTGPRIVGGK"}, "[35]": {"tested_on": "T35, Lys(Dnp)-ATNATX4X3PRIVGG-Lys(Abz), X4 = T, X3 = I", "T35 sequence": "KATNATTIPRIVGGK"}, "[36]": {"tested_on": "T36, Lys(Dnp)-ATNATX4X3PRIVGG-Lys(Abz), X4 = T, X3 = N", "T36 sequence": "KATNATTNPRIVGGK"}, "[37]": {"tested_on": "T37, Lys(Dnp)-ATNATX4X3PRIVGG-Lys(Abz), X4 = T, X3 = S", "T37 sequence": "KATNATTSPRIVGGK"}, "[38]": {"tested_on": "T38, Lys(Dnp)-ATNATX4X3PRIVGG-Lys(Abz), X4 = T, X3 = V", "T38 sequence": "KATNATTVPRIVGGK"}, "[39]": {"tested_on": "T39, Lys(Dnp)-ATNATX4X3PRIVGG-Lys(Abz), X4 = Y, X3 = V", "T39 sequence": "KATNATYVPRIVGGK"}}}
{"substance": "Human plasma purified Factor Xa", "values": [{"measurement": "FXa kcat/KM", "setting": "[1]", "result": 180, "unit": "M⁻¹ s⁻¹"}, {"measurement": "FXa kcat/KM", "setting": "[2]", "result": 5.8, "unit": "M⁻¹ s⁻¹"}, {"measurement": "FXa kcat/KM", "setting": "[3]", "result": 7.7, "unit": "M⁻¹ s⁻¹"}, {"measurement": "FXa kcat/KM", "setting": "[4]", "result": 7.9, "unit": "M⁻¹ s⁻¹"}, {"measurement": "FXa kcat/KM", "setting": "[5]", "result": 7.9, "unit": "M⁻¹ s⁻¹"}, {"measurement": "FXa kcat/KM", "setting": "[6]", "result": 8, "unit": "M⁻¹ s⁻¹"}, {"measurement": "FXa kcat/KM", "setting": "[7]", "result": 50, "unit": "M⁻¹ s⁻¹"}, {"measurement": "FXa kcat/KM", "setting": "[8]", "result": 35, "unit": "M⁻¹ s⁻¹"}, {"measurement": "FXa kcat/KM", "setting": "[9]", "result": 34, "unit": "M⁻¹ s⁻¹"}, {"measurement": "FXa kcat/KM", "setting": "[10]", "result": 52, "unit": "M⁻¹ s⁻¹"}, {"measurement": "FXa kcat/KM", "setting": "[11]", "result": 130, "unit": "M⁻¹ s⁻¹"}, {"measurement": "FXa kcat/KM", "setting": "[12]", "result": 40, "unit": "M⁻¹ s⁻¹"}, {"measurement": "FXa kcat/KM", "setting": "[13]", "result": 160, "unit": "M⁻¹ s⁻¹"}, {"measurement": "FXa kcat/KM", "setting": "[14]", "result": 140, "unit": "M⁻¹ s⁻¹"}, {"measurement": "FXa kcat/KM", "setting": "[15]", "result": 60, "unit": "M⁻¹ s⁻¹"}, {"measurement": "FXa kcat/KM", "setting": "[16]", "result": 50, "unit": "M⁻¹ s⁻¹"}, {"measurement": "FXa kcat/KM", "setting": "[17]", "result": 320, "unit": "M⁻¹ s⁻¹"}, {"measurement": "FXa kcat/KM", "setting": "[18]", "result": 600, "unit": "M⁻¹ s⁻¹"}, {"measurement": "FXa kcat/KM", "setting": "[19]", "result": 15, "unit": "M⁻¹ s⁻¹"}, {"measurement": "FXa kcat/KM", "setting": "[20]", "result": 27, "unit": "M⁻¹ s⁻¹"}, {"measurement": "FXa kcat/KM", "setting": "[21]", "result": 16, "unit": "M⁻¹ s⁻¹"}, {"measurement": "FXa kcat/KM", "setting": "[22]", "result": 15, "unit": "M⁻¹ s⁻¹"}, {"measurement": "FXa kcat/KM", "setting": "[23]", "result": 15, "unit": "M⁻¹ s⁻¹"}, {"measurement": "FXa kcat/KM", "setting": "[24]", "result": 1000, "unit": "M⁻¹ s⁻¹"}, {"measurement": "FXa kcat/KM", "setting": "[25]", "result": 19, "unit": "M⁻¹ s⁻¹"}, {"measurement": "FXa kcat/KM", "setting": "[26]", "result": 24, "unit": "M⁻¹ s⁻¹"}, {"measurement": "FXa kcat/KM", "setting": "[27]", "result": 55, "unit": "M⁻¹ s⁻¹"}, {"measurement": "FXa kcat/KM", "setting": "[28]", "result": 46, "unit": "M⁻¹ s⁻¹"}, {"measurement": "FXa kcat/KM", "setting": "[29]", "result": 32, "unit": "M⁻¹ s⁻¹"}, {"measurement": "FXa kcat/KM", "setting": "[30]", "result": 38, "unit": "M⁻¹ s⁻¹"}, {"measurement": "FXa kcat/KM", "setting": "[31]", "result": 43, "unit": "M⁻¹ s⁻¹"}, {"measurement": "FXa kcat/KM", "setting": "[32]", "result": 20, "unit": "M⁻¹ s⁻¹"}, {"measurement": "FXa kcat/KM", "setting": "[33]", "result": 22, "unit": "M⁻¹ s⁻¹"}, {"measurement": "FXa kcat/KM", "setting": "[34]", "result": 21, "unit": "M⁻¹ s⁻¹"}, {"measurement": "FXa kcat/KM", "setting": "[35]", "result": 63, "unit": "M⁻¹ s⁻¹"}, {"measurement": "FXa kcat/KM", "setting": "[36]", "result": 13, "unit": "M⁻¹ s⁻¹"}, {"measurement": "FXa kcat/KM", "setting": "[37]", "result": 16, "unit": "M⁻¹ s⁻¹"}, {"measurement": "FXa kcat/KM", "setting": "[38]", "result": 20, "unit": "M⁻¹ s⁻¹"}, {"measurement": "FXa kcat/KM", "setting": "[39]", "result": 49, "unit": "M⁻¹ s⁻¹"}]}
